Source: paper PMC11417369, “DNA sequence and chromatin differentiate sequence-specific transcription factor binding in the human malaria parasite Plasmodium falciparum”

T1: SIP2 D1 (Plasmodium falciparum, UniProt C6KSN9 177-235)
T1 sequence: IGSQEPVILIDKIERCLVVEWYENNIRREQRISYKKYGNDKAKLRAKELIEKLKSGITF


Biological target: T1, SIP2 D1
Experiment: gcPBM; about 25 ug protein; PBS, 1% milk, 0.2 mg/ml BSA, salmon testes DNA, 0.03% Triton X-100
Settings: tags: N-terminal GST (pGEX-4T-1), kept; label: surface-attached array probe

Binder | binding signal
GTGCAC_negctrl_site184 (dsDNA) DNA 1: TATTCTATATTTCTATTTAGAAAACATCCCAGTGTG DNA 2: CACACTGGGATGTTTTCTAAATAGAAATATAGAATA | 6.86 ln median PBM intensity, better of two orientations
GTGCAC_negctrl_site537 (dsDNA) DNA 1: TGGTAACAGCATAGAAAATGGACAAACGAAATATAA DNA 2: TTATATTTCGTTTGTCCATTTTCTATGCTGTTACCA | 6.79 ln median PBM intensity, better of two orientations
GTGCAC_negctrl_site693 (dsDNA) DNA 1: TGGACCAAACGACAAAAAAAAAGCAGAAAACAAAAA DNA 2: TTTTTGTTTTCTGCTTTTTTTTTGTCGTTTGGTCCA | 6.81 ln median PBM intensity, better of two orientations
GTGCAC_negctrl_site265 (dsDNA) DNA 1: TATTTTTTTTCTTTATTTATAACGCTCAATATATTC DNA 2: GAATATATTGAGCGTTATAAATAAAGAAAAAAAATA | 6.85 ln median PBM intensity, better of two orientations
GTGCAC_negctrl_site515 (dsDNA) DNA 1: GATATGATGAGATTGATATTCATAAGAGGATTAATG DNA 2: CATTAATCCTCTTATGAATATCAATCTCATCATATC | 6.75 ln median PBM intensity, better of two orientations
GTGCAC_negctrl_site444 (dsDNA) DNA 1: TTTTTCACATCTATAAATCATCTAATCAATATTTTT DNA 2: AAAAATATTGATTAGATGATTTATAGATGTGAAAAA | 6.76 ln median PBM intensity, better of two orientations
GTGCAC_negctrl_site60 (dsDNA) DNA 1: AACACAATAAAAATTAAAAATGTTAAGTAAATATAA DNA 2: TTATATTTACTTAACATTTTTAATTTTTATTGTGTT | 6.71 ln median PBM intensity, better of two orientations
GTGCAC_negctrl_site585 (dsDNA) DNA 1: TTTTGATAGAAGTGTTCTAGGAATTCAACTGTAATA DNA 2: TATTACAGTTGAATTCCTAGAACACTTCTATCAAAA | 6.81 ln median PBM intensity, better of two orientations
GTGCAC_negctrl_site69 (dsDNA) DNA 1: AACAGATAATATAAAAAAAAAAAAAAAAATAATTAA DNA 2: TTAATTATTTTTTTTTTTTTTTTTATATTATCTGTT | 6.71 ln median PBM intensity, better of two orientations
GTGCAC_negctrl_site130 (dsDNA) DNA 1: TTGTATTAATAATTTTTTATATTATAGTTTATAATA DNA 2: TATTATAAACTATAATATAAAAAATTATTAATACAA | 6.82 ln median PBM intensity, better of two orientations
GTGCAC_negctrl_site169 (dsDNA) DNA 1: ATAAGAAGGAACATAAATATATCATAAAAAAAAAAA DNA 2: TTTTTTTTTTTATGATATATTTATGTTCCTTCTTAT | 6.73 ln median PBM intensity, better of two orientations
GTGCAC_negctrl_site149 (dsDNA) DNA 1: GCAAAATATTTAAAATAATATATGTGTATATTTTTA DNA 2: TAAAAATATACACATATATTATTTTAAATATTTTGC | 6.73 ln median PBM intensity, better of two orientations
GTGCAC_negctrl_site288 (dsDNA) DNA 1: TATTATTCATAATTTATCTTTTAAATTAAATCACAA DNA 2: TTGTGATTTAATTTAAAAGATAAATTATGAATAATA | 6.81 ln median PBM intensity, better of two orientations
GTGCAC_negctrl_site445 (dsDNA) DNA 1: TATGGTGTAATTTAGTGTATTATATTATTTTGGTTG DNA 2: CAACCAAAATAATATAATACACTAAATTACACCATA | 6.86 ln median PBM intensity, better of two orientations
GTGCAC_negctrl_site250 (dsDNA) DNA 1: TTTTTTTTTTTATATACTGGAAATATATTTAATTTA DNA 2: TAAATTAAATATATTTCCAGTATATAAAAAAAAAAA | 6.78 ln median PBM intensity, better of two orientations
GTGCAC_negctrl_site363 (dsDNA) DNA 1: ATTAGAGAATCGTAACCCAAATGAACATACTTAAAT DNA 2: ATTTAAGTATGTTCATTTGGGTTACGATTCTCTAAT | 6.72 ln median PBM intensity, better of two orientations

Binder | binding signal
GTGCAC_negctrl_site299 (dsDNA) DNA 1: AGAGAAAGAAGGGAGAAAAAATAAAATAAAATAAAA DNA 2: TTTTATTTTATTTTATTTTTTCTCCCTTCTTTCTCT | 6.83 ln median PBM intensity, better of two orientations
GTGCAC_negctrl_site407 (dsDNA) DNA 1: AATGGAAAAAAAAAAATAAATACAAATAAATACAAA DNA 2: TTTGTATTTATTTGTATTTATTTTTTTTTTTCCATT | 6.81 ln median PBM intensity, better of two orientations
GTGCAC_negctrl_site547 (dsDNA) DNA 1: TTTTACAATAATAAGTAGATCTAAATAAAGATTTAA DNA 2: TTAAATCTTTATTTAGATCTACTTATTATTGTAAAA | 6.73 ln median PBM intensity, better of two orientations
GTGCAC_negctrl_site51 (dsDNA) DNA 1: ATAAAAAATTTAAGTATTTTTTACAAACCTATAAAT DNA 2: ATTTATAGGTTTGTAAAAAATACTTAAATTTTTTAT | 6.78 ln median PBM intensity, better of two orientations
GTGCAC_negctrl_site133 (dsDNA) DNA 1: TCTTTTACAAAAGCTATAACATTCACCACATTATAA DNA 2: TTATAATGTGGTGAATGTTATAGCTTTTGTAAAAGA | 6.79 ln median PBM intensity, better of two orientations
GTGCAC_negctrl_site477 (dsDNA) DNA 1: AAAAAAAATTTTCTTCTGTTGTATTTTTTATACGTT DNA 2: AACGTATAAAAAATACAACAGAAGAAAATTTTTTTT | 6.77 ln median PBM intensity, better of two orientations
GTGCAC_negctrl_site233 (dsDNA) DNA 1: TAAACCTTAAAATATTTCTCATGTTTAACTTATATT DNA 2: AATATAAGTTAAACATGAGAAATATTTTAAGGTTTA | 6.73 ln median PBM intensity, better of two orientations
GTGCAC_negctrl_site46 (dsDNA) DNA 1: TTGTAGGAATTTATTTTGACTGATAATTAATACGTT DNA 2: AACGTATTAATTATCAGTCAAAATAAATTCCTACAA | 6.8 ln median PBM intensity, better of two orientations
GTGCAC_negctrl_site383 (dsDNA) DNA 1: TTTTGTTTTGTTTTGTTTTGTTTTGTTTTATTTTAT DNA 2: ATAAAATAAAACAAAACAAAACAAAACAAAACAAAA | 6.74 ln median PBM intensity, better of two orientations
GTGCAC_negctrl_site320 (dsDNA) DNA 1: TTTTCTAAAATATTCATAATAAATCAAAAAAAAAAA DNA 2: TTTTTTTTTTTGATTTATTATGAATATTTTAGAAAA | 6.79 ln median PBM intensity, better of two orientations
GTGCAC_negctrl_site686 (dsDNA) DNA 1: TCTTATATGATATTTATTTATTTATTTATTTATTCA DNA 2: TGAATAAATAAATAAATAAATAAATATCATATAAGA | 6.77 ln median PBM intensity, better of two orientations
GTGCAC_negctrl_site324 (dsDNA) DNA 1: ATATGTAAAACTTCAAAAAAATATATTTTATGACGA DNA 2: TCGTCATAAAATATATTTTTTTGAAGTTTTACATAT | 6.82 ln median PBM intensity, better of two orientations
GTGCAC_negctrl_site581 (dsDNA) DNA 1: AAAAAAAAATATATATAAAATTAAAAAATGTAATAT DNA 2: ATATTACATTTTTTAATTTTATATATATTTTTTTTT | 6.85 ln median PBM intensity, better of two orientations
GTGCAC_negctrl_site12 (dsDNA) DNA 1: AATAAAAAAATAAAAAAAAAAAAAAATAAAAAAAAA DNA 2: TTTTTTTTTATTTTTTTTTTTTTTTATTTTTTTATT | 6.76 ln median PBM intensity, better of two orientations
GTGCAC_negctrl_site618 (dsDNA) DNA 1: AAAAAAATTACATATCCATTTTAACATAATAAATAG DNA 2: CTATTTATTATGTTAAAATGGATATGTAATTTTTTT | 6.84 ln median PBM intensity, better of two orientations
GTGCAC_negctrl_site96 (dsDNA) DNA 1: ATTTTTTTATAAAATTTTTATATAATTTATTATAAA DNA 2: TTTATAATAAATTATATAAAAATTTTATAAAAAAAT | 6.82 ln median PBM intensity, better of two orientations
